# Results: the supplement of paper PMC9170038
# Test system: MS2 coat protein
# Assay: apparent KD of MS2 coat protein; designed switch direction (-1 OFF switch, 1 ON switch): -1; higher = weaker reporter binding
# Outline: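 Designed RNA switches sharing common flanks were transcribed on Illumina chips by stalled E. coli RNA polymerase. They were titrated with SNAP-549-labelled MS2 coat protein, from 0.7 or 1.5 nM doubling to 3 µM, in Tris-HCl pH 7.5 buffer with KCl, MgCl2, BSA, DTT, tRNA and Tween-20. Titrations ran without input, with 200 uM small-molecule ligand, or with an oligonucleotide input. The apparent KD of each design is the median over its clusters, after curve-fitting of normalised cluster fluorescence.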
# [1] = Eterna round: R95, input ligand: microRNA oligo, concentration not stated
# [2] = Eterna round: R95, input ligand: FMN 200 uM
# [3] = Eterna round: R95, input ligand: none
# [4] = input ligand: microRNA oligo, concentration not stated
sequence,measurement,setting,value
"AUUCCUCCUGUGAGGAUAUGCGUUACGCACCCGUCGCAGAAGGCACAUGAGGAUCACCCAUGUGAGUUACCAAU [BmEX4 A.11] (Eterna round: R97, puzzle: Brourd's mod of Exclusion 4)",apparent KD of MS2 coat protein,input ligand: FMN 200 uM,166 nM
same,apparent KD of MS2 coat protein,input ligand: none,18.9 nM
AUUUAACAUGAGGAUCACCCAUGUGAGGAUAUGUCCAUUUUAAACAAAUAGGAUAUGGACAGAAGGCACACCGG [JR_Exclusion1_Sub007] (puzzle: Exclusion 1),apparent KD of MS2 coat protein,[1],219 nM
AUUUAGAGAGGAUAUAUAUUGUGAAACAUGAGGAUCACCCAUGUAAUAAUAUGGAUAUAAAUAGAAGGCUCAUUUU [Mat - Exclusion 5 - JL mod - D11] (puzzle: Exclusion 5),apparent KD of MS2 coat protein,[2],26.1 nM
same,apparent KD of MS2 coat protein,[1],21.2 nM
same,apparent KD of MS2 coat protein,[3],25.1 nM
AUUUAGAGAGGAUAUAUAUUGUGAAACAUGAGGAUCACCCAUGUAAUAAUAUGGAUGUAAAUAGAAGGCUCAUUUA [Mat - Exclusion 5 - JL mod - D9] (puzzle: Exclusion 5),apparent KD of MS2 coat protein,[1],41.3 nM
AUUUUAACAUAGGAUAUCGAAUUUAUCAUUUAACGAGAAGGAUGAACAUGAGGAUCACCCAUGUGGUAUCAUGG [JL-ex6-3.01] (puzzle: Exclusion 6),apparent KD of MS2 coat protein,[2],160 nM
same,apparent KD of MS2 coat protein,[1],265 nM
same,apparent KD of MS2 coat protein,[3],105 nM
AUUUUGUGAGGAUAUCAGGUGUGCUAGCGUACUGGUACAUCUGAGAAGGCACAUGAGGAUCACCCAUGUUUAUU [Mat - Exclusion 4 - Mod of JL - D39] (puzzle: Exclusion 4),apparent KD of MS2 coat protein,[1],25.6 nM
CAAAAGCUAGGAUAUCGUAAACAAGACAUGAGGAUCACCCAUGUGUCCGUGGCUGACCUCCGAGAAGGAGCAAUAU [Bilate] (puzzle: Exclusion 5),apparent KD of MS2 coat protein,[2],23.6 nM
same,apparent KD of MS2 coat protein,[1],16.8 nM
same,apparent KD of MS2 coat protein,[3],18.6 nM
CAAAAGGUAGGAUAUUAUGCCUGUAACAUGAGGAUCACCCAUGUGGUCCGAGACGGAGUUUAAGAAGGACCGAAAA [Masomariat] (puzzle: Exclusion 5),apparent KD of MS2 coat protein,[2],895 nM
same,apparent KD of MS2 coat protein,[1],169 nM
same,apparent KD of MS2 coat protein,[3],190 nM
"CAAAGAUAAGGAUAUUGAAGGUUCGACAUGAGGAUCACCCAUGUUAUGUUGGAAAAGGGACAAGAAGGUAUGAAAC [salish99_ex5_r4_211] (Eterna round: R97, puzzle: Exclusion 5)",apparent KD of MS2 coat protein,input ligand: FMN 200 uM,28.2 nM
same,apparent KD of MS2 coat protein,input ligand: none,35.8 nM
"CAAGAAUCUAUAUAAAGGCACAUGAGGAUCACCCAUGUGGUCCGUAAAAUCAUGCGACAAGCCAUUUGCUCGUCGUG [Eternabot (L2) Solution 30] (Eterna round: R97, puzzle: Sensor, turn-off variant 1)",apparent KD of MS2 coat protein,input ligand: FMN 200 uM,33.2 nM
same,apparent KD of MS2 coat protein,input ligand: none,37.6 nM
"CAAGCUUUGCGAGGAUAUGAUGGCCUAUAUGCCUCAGAAGGCGCAGAAACUUGAGGAUCACCCAAGUGAUGCAAAUACGAAAAU [Mutated MS2 EX1.9] (Eterna round: R96, puzzle: Exclusion NG 1)",apparent KD of MS2 coat protein,input ligand: FMN 200 uM,78.1 nM
same,apparent KD of MS2 coat protein,[4],17.3 nM
same,apparent KD of MS2 coat protein,input ligand: none,21.8 nM
"CAAUAACAAGCGAGAUCCUACAUGAGGAUCACCCAUGUGCUCGUCUUAAAAGGUACUGUGACGAAAGUCACGGUACC [Eli 87 + Mat D67 3] (Eterna round: R97, puzzle: Sensor, turn-off variant 1)",apparent KD of MS2 coat protein,input ligand: FMN 200 uM,16.9 nM
same,apparent KD of MS2 coat protein,input ligand: none,23 nM
CAAUUCCGAGGAUAUACAUGAGGAUCACCCAUGUCGGGCCUCAGCGUUUAGCGCCUCAGUAGAAGGCGGGUUUC [JL Riri mod 3] (puzzle: Exclusion 3),apparent KD of MS2 coat protein,[1],24.4 nM
"CACAAAGUAGGAUAUAGAAUAAAAGACAUGAGGAUCACCCAUGUGUCGUUCAAGGUGAACCUAGAAGGACUGAAAA [EX5 A.28] (Eterna round: R97, puzzle: Exclusion 5)",apparent KD of MS2 coat protein,input ligand: FMN 200 uM,45.1 nM
same,apparent KD of MS2 coat protein,input ligand: none,116 nM
"CACAUGUCAGGAUAUGGUCAAGACACAGAAUUAGCUGCGAGCCAGAAGGGACAUGAGGAUCACCCAUGUUCCUG [Eternabot (L1) Solution 58] (Eterna round: R97, puzzle: Exclusion 4)",apparent KD of MS2 coat protein,input ligand: FMN 200 uM,19.5 nM
same,apparent KD of MS2 coat protein,input ligand: none,16.3 nM
"CACCGUUAAAGAGGAUAUCGUACAUGAGGAUCACCCAUGUAAUAAAUGAGAAUUUCGGAUGUAUGCGAGAAGGCUUAAAUCGGC [Ostracism 47 - Jieux - Exclusion NG 2] (Eterna round: R96, puzzle: Exclusion NG 2)",apparent KD of MS2 coat protein,[4],39.5 nM
"CACCGUUACACAGGAUAUCUUACAUGAGGAUCACCCAUGUAAUAAAUGAGAAUUUCGAAUGUAAAAGAGAAGGGUGGAAUCGGC [Ostracism 66 - Jieux - Exclusion NG 2] (Eterna round: R96, puzzle: Exclusion NG 2)",apparent KD of MS2 coat protein,input ligand: FMN 200 uM,73.1 nM
same,apparent KD of MS2 coat protein,[4],21.8 nM
same,apparent KD of MS2 coat protein,input ligand: none,30.3 nM
"CACCGUUACUGAGGAUAUCGUACAUGAGGAUCACCCAUGUAAUAAAUGAGAAUUUCGGAUGUAUGCGAGAAGGCAGGAAUCGGC [Ostracism 36 - Jieux - Exclusion NG 2] (Eterna round: R96, puzzle: Exclusion NG 2)",apparent KD of MS2 coat protein,input ligand: FMN 200 uM,31.6 nM
same,apparent KD of MS2 coat protein,[4],19.5 nM
same,apparent KD of MS2 coat protein,input ligand: none,32.2 nM
"CACCGUUAGCGAGGAUAUCGUACAUGAGGAUCACCCAUGUAAUAAAUGAGAAUUUCGGAUGUAUGCGAGAAGGCGCAAAUCGGC [Ostracism 41 - Jieux - Exclusion NG 2] (Eterna round: R96, puzzle: Exclusion NG 2)",apparent KD of MS2 coat protein,[4],45.3 nM
"CACCUGAAUACAGGAUAUCUUACAUGAGGAUCACCCAUGUAAUAAAUGAGAAUUUCGAAUGUAAUAGAGAAGGGUAGAUAAGGC [Ostracism 87 - Jieux - Exclusion NG 2] (Eterna round: R96, puzzle: Exclusion NG 2)",apparent KD of MS2 coat protein,input ligand: FMN 200 uM,39.2 nM
same,apparent KD of MS2 coat protein,[4],26.5 nM
same,apparent KD of MS2 coat protein,input ligand: none,33.1 nM
"CACGAAAUGUGAGGAUAUGUGCGACAAAGUUGCACAGAAGGCACAUGAGGAUCACCCAUGUAAGCUAGGUCGAAAGACCUAGCG [Omei Exc(NG)1 Av2] (Eterna round: R96, puzzle: Exclusion NG 1)",apparent KD of MS2 coat protein,input ligand: FMN 200 uM,269 nM
same,apparent KD of MS2 coat protein,[4],56.3 nM
same,apparent KD of MS2 coat protein,input ligand: none,89.8 nM
"CACUUACAUGAGGAUCACCCAUGUGAGGAUAUCGUGACCUGACGAGAAGUCAAUGUCACGAGAAGGCACGUGGG [Exclusion 1 (Mod 3 solution 97 by Eternabot)] (Eterna round: R97, puzzle: Exclusion 1)",apparent KD of MS2 coat protein,input ligand: FMN 200 uM,11.9 nM
same,apparent KD of MS2 coat protein,input ligand: none,35.9 nM
"CAGCCCUGAGGAUAUCCAUCCUUGUACAUGAGGAUCACCCAUGUCUCCCUCUGGGCUUUCGGAGAAGGCAGGUAUC [Megrez-6.2] (Eterna round: R97, puzzle: Exclusion 5)",apparent KD of MS2 coat protein,input ligand: FMN 200 uM,43.2 nM
same,apparent KD of MS2 coat protein,input ligand: none,44.5 nM
"CAGCUGAAAGUCAGGAUAUCUAGAGCCUCGGCUCUAGAGAAGGGACAUGAGGAUCACCCAUGUGGUCACAGCUG [BmEx4/5-A2] (Eterna round: R97, puzzle: Brourd's mod of Exclusion 4)",apparent KD of MS2 coat protein,input ligand: FMN 200 uM,93.5 nM
same,apparent KD of MS2 coat protein,input ligand: none,619 nM
"CAGCUGAAUGUGAGGAUAUCUAGAGCCUCGGCUCUAGAGAAGGCACAUGAGGAUCACCCAUGUCUCAACAGCUG [BmEx4/2-A2] (Eterna round: R97, puzzle: Brourd's mod of Exclusion 4)",apparent KD of MS2 coat protein,input ligand: FMN 200 uM,249 nM
same,apparent KD of MS2 coat protein,input ligand: none,35.9 nM
CAGGUGUUAGGAUAUCGGAGAUCGAGGCCGACGGGAAAAGCCGAGAAGGAACAUGAGGAUCACCCAUGUAGGUG [JR_Exclu4_Sub035] (puzzle: Exclusion 4),apparent KD of MS2 coat protein,[2],347 nM
same,apparent KD of MS2 coat protein,[1],235 nM
same,apparent KD of MS2 coat protein,[3],223 nM
"CAGUACUGAGGAUAUACAUGAGGAUCACCCAUGUCCUUCAGCUAGGAAACUAGCGAAAGUAGAAGGCAGUACUG [Eli x3 4.001] (Eterna round: R97, puzzle: Exclusion 3)",apparent KD of MS2 coat protein,input ligand: FMN 200 uM,366 nM
same,apparent KD of MS2 coat protein,input ligand: none,13.4 nM
CAGUACUGAGGAUAUACAUGAGGAUCACCCAUGUGCCUAAGGUAGGAUACUACCAUUAGUAGAAGGCAGUACUG [Fiskers Ex 3 828 mod 16] (puzzle: Exclusion 3),apparent KD of MS2 coat protein,[1],13.6 nM
"CAGUACUGAGGAUAUACAUGAGGAUCACCCAUGUGGUUUAGUGCACGCGUACGUGUACGUAGAAGGCAGUACUG [JL 3.27 m8] (Eterna round: R97, puzzle: Exclusion 3)",apparent KD of MS2 coat protein,input ligand: FMN 200 uM,78.3 nM
same,apparent KD of MS2 coat protein,input ligand: none,18.9 nM
"CAGUACUGAGGAUAUACAUGAGGAUCACCCAUGUGUGAGAUACUAGUGAGGUCGAUUAGUAGAAGGCAGUACUG [Mat X3R4 m25] (Eterna round: R97, puzzle: Exclusion 3)",apparent KD of MS2 coat protein,input ligand: FMN 200 uM,957 nM
same,apparent KD of MS2 coat protein,input ligand: none,26.3 nM
"CAGUACUGAGGAUAUACAUGAGGAUCACCCAUGUGUGUGAAAUUUAUGUGGUCGUAAUGUAGAAGGCAGUACUG [JR_Ex3_Sub028] (Eterna round: R97, puzzle: Exclusion 3)",apparent KD of MS2 coat protein,input ligand: FMN 200 uM,30.5 nM
same,apparent KD of MS2 coat protein,input ligand: none,62.9 nM
CAGUACUGAGGAUAUACAUGAGGAUCACCCAUGUGUUCCAGCUAGGAAACUAGCAAAAGUAGAAGGCUGUACUG [salish99_ex3_r3_088] (puzzle: Exclusion 3),apparent KD of MS2 coat protein,[1],17.9 nM
"CAGUACUGAGGAUAUACAUGAGGAUCACCCAUGUGUUCCAGCUAGGAAACUAGCAUAUGUAGAAGGCAGUACUG [Eli x3 4.06] (Eterna round: R97, puzzle: Exclusion 3)",apparent KD of MS2 coat protein,input ligand: FMN 200 uM,578 nM
same,apparent KD of MS2 coat protein,input ligand: none,298 nM
"CAGUACUGCAGGCUUUGGGACAUGAGGAUCACCCAUGUUCGUCUUAUUGAUCUAGGUACGCUGACGUACCUAGAUCU [JL-sv1-2.14 Brourd mod] (puzzle: Sensor v3, turn-off variant 1)",apparent KD of MS2 coat protein,[2],18.8 nM
same,apparent KD of MS2 coat protein,[1],20 nM
same,apparent KD of MS2 coat protein,[3],17.6 nM
